Patent US9074002B2, “PTP1B inhibitors” (Cold Spring Harbor Laboratory, priority 2009, dated 2015)
“Also recorded” adds a separate entry of the source.

B1: scFv64: scFv binding PTP1B-OX, SEQ ID NO: 28 and 97 (protein)
scFv: MKKTAIAIAVALAGFATVAQAALTQPSSVSANPGDPLKITCSGDSSGYGYGWYQQKSPGSAPVTVIYNNNKRPSDIPSRFSGSKSGSTGTLTITGVQAEDEAVYFCGSEDSNTDAVFGAGTTLTVLGQSSRSSTVTLDESGGGLQTPGGTLSLACKASGFTFSGYDMGWVRQAPGKGLEYVAGITSDGRYASYGSAVDGRAAIWRDNGQSTVRLQLKNLRTEDTATYYCARNDGSGWNGNNIDAWGHGTEVIVSSTSGQAGQHHHHHHGAYPYDVPDYAS
B2: scFv106: scFv binding PTP1B-OX, SEQ ID NO: 29 and 133 (protein)
scFv: MKKTAIAIAVALAGFATVAQAALTQPSSVSANPGETVKITCSGDSSDYGYGWYQQKSPGSAPVTVTYSNNQRPPNIPSRFSGSASGSTATLTITGVQVEDEAVYYCGSEDSTTDAVFGAGTTLTVLGQSSRSSAMTLDESGGGLQTPGGALSLVCKASGFTFSSYDMGWVRQAPGKGLEYVAGITNDGRYASYGSAVDGRATISRDNGQSTVRLQLNNLRAEDTGTYYCARDDGSGWTGNTIDTWGHGTEVIVSSTSGQAGQHHHHHHGAYPYDVPDYAS
B3: scFv136: additional scFv, SEQ ID NO: 153 and 160 (protein)
scFv: MKKTAIAIAVALAGFATVAQAALTQPSSVSANPGETVKITCSGGSYSYGWYQQKSPGSAPVTVIYSSDKRPSDIPSRFSGSKSGSTSTLTITGVQAEDEAVYYCGSRDSNYVGIFGAGTTLTVLGQSSRSSTVTLDESGGGLQTPGGALSLVCKASGFTFSSYEMQWVRQAPGKGLEFVAAISSDGSYTNYGAAVQGRATISRDNGQSTVRLQLSNLRAEDTATYYCARSPGGYTWWPGAAGGIDAWGHGTEVIVSSTSGQAGQHHHHHHGAYPYDVPDYAS

Columns and labels:
[1] = target: T1, PTP1B-OX (Homo sapiens, UniProt P18031); assay: Inhibition of reactivation of reversibly oxidized PTP1B by reducing agent (RCML phosphatase assay); type: biochemical; details: PTP1B oxidized with H2O2, buffer exchange, TCEP added; FIG. 2
T1 construct: made in house; host or cells: E. coli BL21 (pET19b)
T1 sequence (P18031 3-277): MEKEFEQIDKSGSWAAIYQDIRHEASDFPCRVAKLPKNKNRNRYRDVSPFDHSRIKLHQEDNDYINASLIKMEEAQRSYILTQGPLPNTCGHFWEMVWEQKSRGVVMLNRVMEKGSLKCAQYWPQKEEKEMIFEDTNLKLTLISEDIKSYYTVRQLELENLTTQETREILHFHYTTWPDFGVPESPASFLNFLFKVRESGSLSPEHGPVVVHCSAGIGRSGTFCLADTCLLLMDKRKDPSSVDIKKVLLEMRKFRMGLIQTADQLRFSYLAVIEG
Experimental: (§1) Applicant's hypothesis was that scFvs that are able to bind to and stabilize the oxidized conformation of PTP1B in solution would inhibit reactivation by reducing agent, but have no direct inhibitory effect on phosphatase activity in assays in vitro. Activity was measured using ^32P-labeled pTyr-Reduced Carboxamidomethylated and Maleylated Lysozyme as substrate. Applicant established conditions in which wild type PTP1B could be reversibly oxidized in vitro. PTP1B was inactivated following addition of H2O2. […] Applicant validated this approach further, by testing the effects of expressing one of the scFvs (scFv45) as a single chain antibody fragment “intrabody” to PTP1B, using 293T cells as the expression system. This intrabody was expressed transiently and then tested for effects on insulin signaling, focusing initially on the tyrosine phosphorylation status of the beta-subunit of the insulin receptor and insulin receptor substrate (IRS-1).
(§2) Reduced carboxamidomethylated and maleylated lysozyme (RCML) was labeled with ^32P using recombinant GST-FER kinase to stoichiometries up to 0.8 (mol ^32P incorporated/mol of protein). This ^32P-Labeled phospho-tyrosyl RCML was used as the substrate in the in-solution phosphatase assay for screening the conformation sensor scFvs. Recombinant PTP1B was reversibly oxidized and transiently inactivated with H2O2 (5× molar excess of the protein). […] Purified bacterially expressed scFvs (100× molar excess of PTP1B) were incubated with PTP after H2O2 treatment and its removal and the effect of individual scFv on stabilizing the reversibly oxidized conformation was assessed by the phosphatase assay under reducing condition.
In a different experiment, conditions were established in which wild type PTP1B could be reversibly oxidized in vitro. […] Addition of the reducing agent alone had no substantial effect on PTP1B activity (FIGS. 1 and 2, “PTP1B”).

[2] = target: T2, PTP1B (reduced, active) (Homo sapiens, UniProt P18031); assay: Direct effect of scFvs/antibodies on PTP1B phosphatase activity (32P-pTyr-RCML substrate); type: biochemical; details: 32P-labeled pTyr-RCML substrate, FIG. 1
T2 construct: made in house; host or cells: E. coli BL21 (pET19b)
T2 sequence (P18031 3-277 limits assumed): T1 sequence (P18031 3-277)
Experimental: as §1, §2
In order to screen the isolated scFvs for those that inhibit reactivation of PTP1B-OX by reducing agent, but have no direct inhibitory effect on phosphatase activity in assays in vitro, the effect of six scFvs (scFv20, scFv34, scFv45, scFv57, scFv64 and scFv106) on PTP1B activity was determined. PTP1B activity was measured using 32P-labeled pTyr-Reduced Carboxamidomethylated and Maleylated Lysozyme as substrate (FIGS. 1 and 2). Addition of the reducing agent TCEP alone had no substantial effect in PTP1B activity was assessed.

[3] = target: T3, endogenous PTP1B-OX (Homo sapiens, UniProt P18031); assay: Intrabody interaction in 293T cells treated with H2O2 (Ni-NTA pull down / anti-PTP1B immunoprecipitation); type: cell-based; details: 1 mM H2O2 5 minutes
T3 construct: endogenous in cells; host or cells: 293T cells (transfected only with the scFv intrabody)
T3 sequence (P18031 1-435): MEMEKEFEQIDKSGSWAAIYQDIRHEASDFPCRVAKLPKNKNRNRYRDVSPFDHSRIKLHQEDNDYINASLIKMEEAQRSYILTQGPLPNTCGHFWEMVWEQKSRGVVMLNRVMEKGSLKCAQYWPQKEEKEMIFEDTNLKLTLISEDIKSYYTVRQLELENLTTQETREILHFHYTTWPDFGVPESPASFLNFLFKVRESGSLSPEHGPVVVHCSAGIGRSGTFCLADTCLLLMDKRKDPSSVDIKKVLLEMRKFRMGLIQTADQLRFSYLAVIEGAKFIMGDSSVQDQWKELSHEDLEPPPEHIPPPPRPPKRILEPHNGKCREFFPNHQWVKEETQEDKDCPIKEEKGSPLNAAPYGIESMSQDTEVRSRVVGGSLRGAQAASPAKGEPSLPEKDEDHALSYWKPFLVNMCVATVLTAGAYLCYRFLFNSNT
Experimental: (§3) One of the positive candidate scFvs (scFv45) was cloned in pcDNA3.2/V5-GW/D-TOPO expression vector and transiently expressed in mammalian cells as stable intracellular antibody (aka intrabody) (FIG. 10). To detect PTP1B-OX and scFv45 interaction in mammalian cells, scFv45 was overexpressed in 293T cells as described herein (See Example 4) and 48 hours post transfection the cells were serum-starved for 16 hours in growth medium (DMEM, low glucose) without serum (FBS), then incubated with 1 mM H2O2 (in growth medium without serum) for 5 minutes at 37° C. or treated with 20 mM NAC (in growth medium without serum) for 1 hour at 37° C. Cells treated with H2O2 were washed twice with cold (4° C.) PBS and lysed in lysis buffer (25 mM HEPES, pH 7.4, 150 mM NaCl, 0.25% Deoxychloate, 1% TritonX-100, 25 mM NaF, 10 mM MgCl2, 1 mM EDTA, 10% Glycerol, 0.5 mM PMSF, 10 mM Benzamidine, protease inhibitor cocktail). Cells treated with NAC were lysed with lysis buffer containing 2 mM TCEP to ensure a post-lysis reducing environment. Interaction between PTP1B and intrabody45 were tested by pulling down the protein complex from 1 mg of total cell lysate with Ni-NTA agarose or by immunoprecipitating PTP with anti-PTP1B (FG6). For the pull down experiment, Ni-NTA agarose beads were incubated with the lysates (both oxidized and reduced) at 4° C. Protein complex bound to the Ni-NTA agarose beads was pulled down and washed three times; first with lysis buffer containing 20 mM imidazole followed by two more washes with wash buffer (PBS, pH 7.4, 20 mM imidazole, 0.05% BSA, 0.05% Tween-20 and protease inhibitors). Applicant used 20 mM imidazole in the wash buffer to reduce the non-specific binding of proteins with the Ni-NTA agarose beads. The complex was eluted with wash buffer containing 500 mM imidazole with gentle shaking at 4° C. and the eluate was mixed with SDS sample buffer with DTT. For the immunoprecipitation experiments, 1 mg of total cell lystates (both oxidized and reduced) was incubated with anti-PTP1B antibody (FG6) at 4° C. The interacting protein complex was immunoprecipitated after incubating the lysate-antibody mixture with protein A/G Sepharose at 4° C. After immunoprecipitation, Sepharose beads were washed three times; first with lysis buffer followed by two more washes with wash buffer (PBS, pH 7.4, 0.05% BSA, 0.05% Tween-20 and protease inhibitors). The Sepharose beads were then heated at 90° C. in 2×SDS sample buffer with DTT. Proteins from the pulled down or immunoprecipitated complex were separated by SDS-PAGE. PTP was detected with anti-PTP1B antibody (FG6) and the intrabodies were detected with anti-HA (3F10)-HRP antibody [anti-HA (3F10)-HRP, Roche] by immunoblotting.
In the initial in vitro phosphatase screening assay using reversibly oxidized (with H2O2) recombinant PTP1B, Applicant found four different PTP1B-OX specific scFvs (scFv45, scFv57, scFv64 and scFv106) from the initial pool of 12 different scFvs. […] Applicant has also shown that scFv45, expressed as an intrabody in mammalian cells, can bind to endogenous PTP1B-OX but not endogenous PTP under reducing conditions. Further assessment was carried out to identify additional PTP1B-OX-specific intrabodies. Additional scFvs have been subcloned in pcDNA3.2/V5-GW/D-TOPO mammalian expression vector (FIG. 10) from their respective phagemid constructs. After transient overexpression of these scFvs as intrabodies in 293T cells, the interaction between endogenous PTP1B and these intrabodies in both H2O2-treated cells and cells was observed under reducing condition (treated with NAC and lysed with lysis buffer containing TCEP). […] All can be used in the methods and compositions described herein. Additional scFvs, such as some or all of the 137 selected individual scFvs from the library, can be similarly tested by in vitro screening and/or by binding assay in mammalian cells.

[4] = target: T4, endogenous PTP1B under reducing conditions (Homo sapiens, UniProt P18031); assay: Intrabody interaction in 293T cells under reducing condition (NAC, TCEP) (Ni-NTA pull down / immunoprecipitation); type: cell-based; details: 20 mM NAC, lysis buffer with 2 mM TCEP, FIGS. 11, 12
T4 construct: endogenous in cells; host or cells: 293T cells (transfected only with the scFv intrabody)
T4 sequence (P18031 1-435): T3 sequence (P18031 1-435)
Experimental: as §3
In the initial in vitro phosphatase screening assay using reversibly oxidized (with H2O2) recombinant PTP1B, Applicant found four different PTP1B-OX specific scFvs (scFv45, scFv57, scFv64 and scFv106) from the initial pool of 12 different scFvs. […] Applicant has also shown that scFv45, expressed as an intrabody in mammalian cells, can bind to endogenous PTP1B-OX but not endogenous PTP under reducing conditions. Further assessment was carried out to identify additional PTP1B-OX-specific intrabodies. Additional scFvs have been subcloned in pcDNA3.2/V5-GW/D-TOPO mammalian expression vector (FIG. 10) from their respective phagemid constructs. […]

Molecule | inhibition of reactivation of PTP1B-OX by reducing agent (restoration of PTP1B activity after reversible oxidation) [1] | direct effect on PTP1B activity [2] | binding of intrabody to endogenous PTP1B-OX ([3]; FIGS. 11, 12) | binding of intrabody to endogenous PTP1B under reducing conditions [4] | binding of intrabody to endogenous PTP1B-OX ([3]; FIGS. 11, 12, listed as scFv 136)
B1 | substantial inhibition of the restoration of PTP1B activity | no direct inhibition of PTP activity | bound weakly to PTP1B-OX |  | 
B2 | substantial inhibition of the restoration of PTP1B activity | no direct inhibition of PTP activity | bound to endogenous PTP1B-OX strongly; also recorded: co-pulldown of PTP1B-OX in the presence of H2O2 | not in the presence of NAC and TCEP | 
B3 |  |  | co-pulldown of PTP1B-OX in the presence of H2O2 | not in the presence of NAC and TCEP | bound weakly to PTP1B-OX
